This experiment has as its target CK2β^1–193-DBCO-Sulfo-Cy5 (human) (UniProt P67870). The experiment in a line: other fluorescence titration; quenching of the fluorescence of 30 nM CK2β^1–193-DBCO-Sulfo-Cy5 by 0.3 nM to 5 µM CK2α variant; Monolith NT.115, mode initial fluorescence; 25°C; 500 mM NaCl, 25 mM TRIS/HCl, pH 8.5, 0.05% Tween 20.

As for “human CK2α (from UniProt P68400 1-391) (enzyme)”, the Kd (as a rule, the free concentration of one partner at which half of the binding sites on the other are occupied at equilibrium, for simple one-to-one binding) is 13.6 nM.

B1: human CK2α^Lys198Arg (enzyme)
chain: MSGPVPSRARVYTDVNTHRPREYWDYESHVVEWGNQDDYQLVRKLGRGKYSEVFEAINITNNEKVVVKILKPVKKKKIKREIKILENLRGGPNIITLADIVKDPVSRTPALVFEHVNNTDFKQLYQTLTDYDIRFYMYEILKALDYCHSMGIMHRDVKPHNVMIDHEHRKLRLIDWGLAEFYHPGQEYNVRVASRYFRGPELLVDYQMYDYSLDMWSLGCMLASMIFRKEPFFHGHDNYDQLVRIAKVLGTEDLYDYIDKYNIELDPRFNDILGRHSRKRWERFVHSENQHLVSPEALDFLDKLLRYDHQSRLTAREAMEHPYFYTVVKDQARMGSSSMPGGSTPVSSANMMSGISSVPTPSPLGPLAGSPVIAAANPLGMPVPAAAGAQQ
B1 yielded a Kd of 6.2 nM.

For the origin of these results see PMC9014129.
